Test [1] has as its target T1, N-terminally HA-tagged chimeric TM4SF20 version 2 expressed on CHO DG44 cells (chimeric TM4SF20 ver.2_CHO) (human TM4SF20 with the second loop …).
T1 construct: also called chimeric TM4SF20 ver.2_ntHA
T1 chain: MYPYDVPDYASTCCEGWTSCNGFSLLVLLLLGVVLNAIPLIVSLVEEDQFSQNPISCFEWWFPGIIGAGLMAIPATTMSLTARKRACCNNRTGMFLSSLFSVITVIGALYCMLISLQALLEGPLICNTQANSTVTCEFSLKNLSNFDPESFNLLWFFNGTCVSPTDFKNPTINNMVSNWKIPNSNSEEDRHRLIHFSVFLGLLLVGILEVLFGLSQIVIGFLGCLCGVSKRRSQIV
Put plainly: flow cytometry, hybridoma culture supernatant on chimeric TM4SF20 ver.2_CHO cells. As for the experimental part: (§1) Next, 5×10⁴ cells suspended in FACS buffer were dispensed to a U-bottom 96-well plate. The anti-TM4SF20 antibody (hybridoma culture supernatant) or the HAT medium as a negative control was added thereto at a concentration of 10 μg/mL. After reaction on ice for 1 hour, the cells were washed with FACS buffer. Next, an FITC-labeled anti-mouse antibody (Goat F(ab′)₂ Fragment Anti-mouse IgG (H+L)-FITC, Beckman Coulter, Inc.) was added thereto as a secondary antibody and reacted on ice for 1 hour. The cells were washed with FACS buffer, then suspended in FACS buffer supplemented with 10 μg/mL propidium iodide (PI, Sigma-Aldrich Corp.), and assayed using a flow cytometer. The assay data was analyzed as to PI-negative cell populations using CELLQuest software. As a result, all the clones bound to TM4SF20_CHO but to neither […] nor DG44 cells (FIG. 4).
(§2) Next, the binding of the anti-TM4SF20 antibody (hybridoma culture supernatant) was confirmed by flow cytometry in the same way as in Example 3. As a result, all the clones bound to chimeric TM4SF20 ver.1_CHO but to neither chimeric TM4SF20 ver.2_CHO nor DG44 cells (FIG. 6).
On the technique in general: In flow cytometry, cells or beads pass a laser one at a time.

Another test deals with T2, GST_TM4SF20_C3 (human).
T2 construct: Tested as whole E. coli lysate, denatured, in western blotting; not shown: glutathione S-transferase (GST) tag encoded by the vector pGEX-6P-1 (GE Healthcare), upstream of the BamHI site
T2 chain: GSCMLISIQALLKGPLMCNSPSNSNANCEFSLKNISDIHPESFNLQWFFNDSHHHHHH
Put plainly: western blotting of E. coli whole cell lysate, purified antibody. The protocol:
(§3) Each construct was expressed using BL21 (DE3) Competent Cells (Takara Bio Inc.). The whole cell lysate was electrophoresed by SDS-PAGE and then transferred to a PVDF membrane (Immobilon-P, Millipore Corp.) for western blotting. The construct was detected using the anti-TM4SF20 antibody (purified antibody) at a concentration of 5 μg/mL, a 3000 fold-diluted secondary antibody (HRP-anti mIgG, GE Healthcare Bio-Sciences Corp.), and ECL Western Blotting Detection Reagents (GE Healthcare Bio-Sciences Corp). The expression of each construct was confirmed using an anti-GST antibody (GE Healthcare Bio-Sciences Corp.) and an anti-His antibody (Santa Cruz Biotechnology, Inc.). Secondary antibodies used were a HRP-labeled anti-goat antibody (Invitrogen Corp.) and a HRP-labeled anti-rabbit antibody (GE Healthcare Bio-Sciences Corp.), respectively.

The next test concerns the target T3, GST_TM4SF20_C2 (human).
T3 construct: Tested as whole E. coli lysate, denatured, in western blotting; not shown: glutathione S-transferase (GST) tag encoded by the vector pGEX-6P-1 (GE Healthcare), upstream of the BamHI site
T3 chain: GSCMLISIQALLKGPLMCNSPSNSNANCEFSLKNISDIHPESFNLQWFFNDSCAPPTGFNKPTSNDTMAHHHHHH
The description is as above. The protocol: as §3

For test [2], the target named is T4, N-terminally HA-tagged mouse TM4SF20 expressed on CHO DG44 cells (mTM4SF20_CHO) (mouse, UniProt Q9CQY8 2-226).
T4 construct: also called mTM4SF20_ntHA; pCOS2_mTM4SF20_ntHA product
T4 chain: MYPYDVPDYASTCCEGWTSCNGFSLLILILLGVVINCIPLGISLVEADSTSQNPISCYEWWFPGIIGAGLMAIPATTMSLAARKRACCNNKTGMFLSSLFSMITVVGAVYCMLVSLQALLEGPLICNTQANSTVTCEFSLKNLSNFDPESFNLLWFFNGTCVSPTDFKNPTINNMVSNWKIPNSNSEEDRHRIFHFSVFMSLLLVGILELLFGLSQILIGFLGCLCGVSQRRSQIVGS
Put plainly: flow cytometry, hybridoma culture supernatant on mTM4SF20_CHO cells. The protocol: as §1

Test [3] addresses T5, N-terminally HA-tagged TM4SF20 expressed on Ba/F3 cells (TM4SF20_Ba/F3) (human, UniProt Q53R12 2-229).
T5 construct: Four-transmembrane protein on the cell membrane; also called TM4SF20_ntHA; pMCDN2_TM4SF20_ntHA product
T5 sequence: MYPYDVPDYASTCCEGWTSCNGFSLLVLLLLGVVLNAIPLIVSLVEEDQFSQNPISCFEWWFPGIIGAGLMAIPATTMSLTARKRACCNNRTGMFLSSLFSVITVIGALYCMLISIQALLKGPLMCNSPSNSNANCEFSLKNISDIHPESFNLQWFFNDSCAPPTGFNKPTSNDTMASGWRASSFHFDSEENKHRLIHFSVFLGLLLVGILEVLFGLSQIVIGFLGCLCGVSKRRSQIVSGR
The experiment in a line: flow cytometry screening of hybridoma supernatants on TM4SF20_Ba/F3 against parental Ba/F3 cells.

Test [4] concerns the target T6, human TM4SF20 (Transmembrane 4 L6 family member 20), endogenous (human, UniProt Q53R12 1-229).
T6 construct: Untagged native protein as on A549 lung adenocarcinoma cells and in clinical stomach cancer sections; also called TM4SF20 protein
T6 sequence: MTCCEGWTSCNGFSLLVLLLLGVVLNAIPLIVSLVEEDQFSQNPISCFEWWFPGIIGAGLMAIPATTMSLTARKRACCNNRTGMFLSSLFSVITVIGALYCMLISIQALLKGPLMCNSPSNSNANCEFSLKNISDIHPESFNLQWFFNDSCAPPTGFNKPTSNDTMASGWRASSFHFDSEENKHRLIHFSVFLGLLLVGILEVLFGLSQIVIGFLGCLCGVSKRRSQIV
The experiment in a line: flow cytometry, purified antibody at 10 µg/mL on A549 cells. As for the experimental part: as §1
Each anti-TM4SF20 antibody prepared in Example 2 was used to evaluate TM4SF20 expression on the cell membrane of a human cancer cell line by flow cytometry. A primary antibody used was the anti-TM4SF20 antibody (purified antibody) or a negative control antibody (mIgG2a, BD Biosciences Pharmingen). […] The flow cytometry was conducted in the same way as in Example 3 except for the primary antibody used at a concentration of 10 μg/mL. As a result, the expression of TM4SF20 was confirmed on the cell membrane of the A549 cells (FIG. 9)

Test [5] concerns the target T7, C-terminally HA-tagged TM4SF20 expressed on CHO DG44 cells (TM4SF20_CHO) (human, UniProt Q53R12 1-229).
T7 construct: also called TM4SF20_ctHA; pCOS2_TM4SF20_ctHA product
T7 sequence: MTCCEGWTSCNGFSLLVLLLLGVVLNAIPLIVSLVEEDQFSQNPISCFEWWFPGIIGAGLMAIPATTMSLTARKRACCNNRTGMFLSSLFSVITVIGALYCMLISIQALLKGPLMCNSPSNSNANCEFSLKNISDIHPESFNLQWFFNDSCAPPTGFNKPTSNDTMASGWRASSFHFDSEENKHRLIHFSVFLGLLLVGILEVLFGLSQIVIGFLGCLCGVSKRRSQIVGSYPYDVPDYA
The experiment in a line: flow cytometry, hybridoma culture supernatant at 10 µg/mL on TM4SF20_CHO cells. The protocol: as §1

The target of test [6] is T8, N-terminally HA-tagged chimeric TM4SF20 version 1 expressed on CHO DG44 cells (chimeric TM4SF20 ver.1_CHO) (human TM4SF20 with the first loop …, UniProt Q53R12 2-229).
T8 construct: also called chimeric TM4SF20 ver.1_ntHA
T8 chain: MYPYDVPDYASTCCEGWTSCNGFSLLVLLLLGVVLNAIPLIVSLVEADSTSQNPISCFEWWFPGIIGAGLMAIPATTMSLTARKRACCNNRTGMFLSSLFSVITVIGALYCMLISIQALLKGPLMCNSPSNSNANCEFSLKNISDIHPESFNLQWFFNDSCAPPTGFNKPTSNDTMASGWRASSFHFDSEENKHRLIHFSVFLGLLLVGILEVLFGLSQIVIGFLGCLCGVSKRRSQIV
The experiment in a line: flow cytometry, hybridoma culture supernatant on chimeric TM4SF20 ver.1_CHO cells. As for the experimental part:
as §1, §2

B1: anti-TM4SF20 antibody B8 (antibody, mouse IgG2b, V domains shown)
VH: RVQLKESGPDLVQPSQTLSLTCTVSGFSLTNYGVHWIRQPPGKGLEWVGTVGWDDKKYYNSVLKSRLSINRDTSKNQVFLKLSSLQTEDTAMYYCTPYYDGSPYVMDYWGQGTSVTVSS
VL: DIVMSQSPSSLAVSAGEKVTMTCKSSQSLFDSGTRKNYLAWYQQKPGQSPKLLIYWASTRESGVPDRFTGSGSGTDFTLTISSVQAEDLAVYYCKQSYYLLTFGAGTKLELK
notes: also called clone B8
On to B1, for which the binding result in test [1] was “no binding”; in the test with GST_TM4SF20_C3, “no binding (tested: 5 µg/mL)”; in the test with GST_TM4SF20_C2 it was “no binding (tested: 5 µg/mL)”; in test [2], “no binding (tested: 10 µg/mL)”.

B2: anti-TM4SF20 antibody B15 (antibody, mouse IgG2a, V domains shown)
VH: RVQLKESGPDLVQPSQTLSLTCTVSGFSLTNYGVHWIRQPPGKGLEWVGTVGWDDKKYYNSVLKSRLSINRDTSKNQVFLKLSSLQTEDTAMYYCTPYYDGSPYVMDYWGQGTSVTVSS
VL: DIVMSQSPSSLAVSAGEKVTMTCKSSQSLFDSGTRKNYLAWYQQKPGQSPKLLIYWASTRESGVPDRFTGSGSGTDFTLTISSVQAEDLAVYYCKQSYYLLTFGAGTKLELK
notes: also called clone B15
For B2, the binding result in test [1] was “no binding”; with GST_TM4SF20_C3, “no binding (tested: 5 µg/mL)”; with GST_TM4SF20_C2, “no binding (tested: 5 µg/mL)”; in test [2], “no binding (tested: 10 µg/mL)”.

B3: anti-TM4SF20 antibody B11 (antibody, mouse IgG1, V domains shown)
VH: EVQLQQSGPELVKPGASVKMSCKASGYRFTNYVMHWVKQKPGQGLEWIGYINPYNAGTKYNEKFKGKATLTSDKSSSTAYMELSSLTSEDSAVYYCARGAGWSLRFADWGQGTLVTVSA
VL: DILMTQSPSSMSVSLGDTVSITCHASQGISSNIGWLQQKPGKSFKGLIYLATNLEDGVPSRFSGSGSGADYSLTITSLESEDFAVYYCVQYSQFPRTFGGGTKLEIK
notes: also called clone B11
Consider B3, for which the binding result was “no binding” in test [1]; “binds” in test [3]; “no binding (tested: 5 µg/mL)” in the test with GST_TM4SF20_C3; “no binding (tested: 5 µg/mL)” with GST_TM4SF20_C2; “binds” in test [4]; “no binding (tested: 10 µg/mL)” in test [2]. Further, the binding result in test [5] and in test [6] was “binds” each time.

B4: anti-TM4SF20 antibody C7 (antibody, mouse IgG1, V domains shown)
VH: QVQLKESGPDLVQPSQTLSLTCTVSGFSLSSYGVHWVRQPPGKGLEWVGTMGWDDKKYYNSALNSRLSLSRDTSKNQVFLKLSSLQTEDTAMYYCTRDYYSDGSFAYWGQGTLVTVSA
VL: DVLMTQTPLSLPVSLGDQASISCKSSQSIVHSDGNTYLQWYLQKPGQSPKLLIYKVSNRFSGVPDRFSGSGSGTDFTLKISRVEAEDLGIYYCFQGSHVPPTFGTGTKLEIK
notes: also called clone C7
Turning to B4, the binding result is recorded as “no binding” in test [1], “no binding (tested: 5 µg/mL)” in the test with GST_TM4SF20_C3, “no binding (tested: 5 µg/mL)” with GST_TM4SF20_C2 and “no binding (tested: 10 µg/mL)” in test [2].

B5: anti-TM4SF20 antibody C9 (antibody, mouse IgG1, V domains shown)
VH: QVQLKESGPDLVQPSQTLSLTCTVSGFSLSSYGVHWVRQPPGKGLEWVGTMGWDDKKYYNSALNSRLSLSRDTSKNQVFLKLSSLQTEDTAMYYCTRDYYSDGSFAYWGQGTLVTVSA
VL: DVLMTQTPLSLPVSLGDQASISCKSSQSIVHSDGNTYLQWYLQKPGQSPKLLIYKVSNRFSGVPDRFSGSGSGTDFTLKISRVEAEDLGIYYCFQGSHVPPTFGTGTKLEIK
notes: also called clone C9
As for B5, the binding result in test [1] is listed as “no binding”; with GST_TM4SF20_C3, “no binding (tested: 5 µg/mL)”; with GST_TM4SF20_C2 it was “no binding (tested: 5 µg/mL)”; in test [2], “no binding (tested: 10 µg/mL)”.

B6: anti-TM4SF20 antibody B12 (antibody, mouse IgG1, V domains shown)
VH: QVQLKESGPDLVQPSQTLSLTCTVSGFSLTNYGVHWVRQPPGKGLEWVGTMGWDDKKYYNSALKSRLSISRDTSKNQVFLKLSSLQTEDTAMYYCTRNVNFDYWGQGTTLTVSS
VL: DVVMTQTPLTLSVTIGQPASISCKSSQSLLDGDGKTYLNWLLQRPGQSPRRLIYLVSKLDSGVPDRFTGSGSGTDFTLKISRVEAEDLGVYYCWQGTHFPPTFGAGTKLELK
notes: also called clone B12
B6: the binding result in test [1] is listed as “no binding”; in test [3] it was “binds”; with GST_TM4SF20_C3, “no binding (tested: 5 µg/mL)”; in the test with GST_TM4SF20_C2 it was “no binding (tested: 5 µg/mL)”; in test [4], “binds”; in test [2], “no binding (tested: 10 µg/mL)”. Further, the binding result in test [5] and in test [6] was “binds” each time.

The values above are taken from patent US20120004117A1 (FORERUNNER PHARMA RESEARCH, published 2012).
